Test results from patent publication US20190085054A1.

Columns and labels:
Test in all cases: cell-based or functional assay
[1] = target: active MMP13 (UniProt P45452)
[2] = target: human MMP2 (pro-MMP2 activated with APMA) (human) (UniProt P08253)
[3] = target: catalytic domain of human MMP9 (human) (UniProt P14780)
Chain of catalytic domain of human MMP9 (human) (P14780 107-444 limits assumed): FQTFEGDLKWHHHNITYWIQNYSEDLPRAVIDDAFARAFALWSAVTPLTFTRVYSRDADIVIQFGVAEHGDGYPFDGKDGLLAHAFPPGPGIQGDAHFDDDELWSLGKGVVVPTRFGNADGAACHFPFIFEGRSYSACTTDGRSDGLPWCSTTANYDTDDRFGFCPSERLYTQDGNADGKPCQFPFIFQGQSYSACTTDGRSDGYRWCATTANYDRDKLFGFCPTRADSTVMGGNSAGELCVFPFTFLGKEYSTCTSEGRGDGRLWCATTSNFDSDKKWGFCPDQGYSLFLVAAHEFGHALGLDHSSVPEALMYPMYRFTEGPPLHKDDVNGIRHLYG

Chain of human MMP2 (pro-MMP2 activated with APMA) (human) (P08253 30-660): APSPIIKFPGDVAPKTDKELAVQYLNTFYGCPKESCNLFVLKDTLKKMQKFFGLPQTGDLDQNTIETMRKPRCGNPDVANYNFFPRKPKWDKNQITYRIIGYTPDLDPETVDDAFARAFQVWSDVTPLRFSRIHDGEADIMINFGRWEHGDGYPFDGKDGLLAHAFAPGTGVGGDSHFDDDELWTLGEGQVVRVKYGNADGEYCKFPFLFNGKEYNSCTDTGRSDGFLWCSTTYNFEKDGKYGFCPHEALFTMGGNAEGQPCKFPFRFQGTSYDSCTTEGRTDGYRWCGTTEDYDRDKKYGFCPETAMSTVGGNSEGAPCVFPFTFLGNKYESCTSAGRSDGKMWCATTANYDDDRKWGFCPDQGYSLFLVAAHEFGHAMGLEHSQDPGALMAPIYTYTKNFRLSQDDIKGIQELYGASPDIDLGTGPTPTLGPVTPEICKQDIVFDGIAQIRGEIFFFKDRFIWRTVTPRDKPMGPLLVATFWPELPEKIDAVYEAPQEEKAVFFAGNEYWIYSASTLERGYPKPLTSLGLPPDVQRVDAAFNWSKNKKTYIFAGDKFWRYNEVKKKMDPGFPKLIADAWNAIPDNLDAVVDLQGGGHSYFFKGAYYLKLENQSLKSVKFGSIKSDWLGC

Substance	MMP13 IC50 [1]	MMP2 IC50 [2]	MMP9 IC50 [3]
TIMP-3 mutein P56N, G58T	3.1 nM	1 nM	2.3 nM
TIMP-3 mutein T63N, K65T	2.2 nM	0.8 nM	0.5 nM
TIMP-3 mutein F57N	0.5 nM	0.5 nM	4.6 nM
TIMP-3 mutein K45S, F57N		0.3 nM	4 nM
